B1: Arabidopsis thaliana cryptochrome 2 (CRY2, UniProt Q96524), residues 1-535 fused after the Gal4 DNA-binding domain (Gal4BD-CRY2(535)); mutagenized window 321-412, Q96524 (parent)
chain: MKMDKKTIVWFRRDLRIEDNPALAAAAHEGSVFPVFIWCPEEEGQFYPGRASRWWMKQSLAHLSQSLKALGSDLTLIKTHNTISAILDCIRVTGATKVVFNHLYDPVSLVRDHTVKEKLVERGISVQSYNGDLLYEPWEIYCEKGKPFTSFNSYWKKCLDMSIESVMLPPPWRLMPITAAAEAIWACSIEELGLENEAEKPSNALLTRAWSPGWSNADKLLNEFIEKQLIDYAKNSKKVVGNSTSLLSPYLHFGEISVRHVFQCARMKQIIWARDKNSEGEESADLFLRGIGLREYSRYICFNFPFTHEQSLLSHLRFFPWDADVDKFKAWRQGRTGYPLVDAGMRELWATGWMHNRIRVIVSSFAVKFLLLPWKWGMKYFWDTLLDADLECDILGWQYISGSIPDGHELDRLDNPALQGAKYDPEGEYIRQWLPELARLPTEWIHHPWDAPLTVLKASGVELGTNYAKPIVDIDTARELLAKAISRTREAQIMIGAAPDEIVADSFEALGANTIKEPGLCPSVSSNDQQVPSAV

Variants of: B1
Assay: yeast two-hybrid growth selection (MaV203; Gal4BD-CRY2(1-535) library x Gal4AD-CIB1; URA3 reporter on SC -Trp/-Leu/-Ura) in the dark, deep sequencing before and after selection, Enrich2 scoring; three independent screens (one at 48 h, two …)
Details: with CIB1 (CRYPTOCHROME-INTERACTING BASIC-HELIX-LOOP-HELIX 1), dark (no blue light), screens 1, 3 and 4, Svar > 0 = enriched under dark selection for CRY2-CIB1 two-hybrid growth (URA3 reporter), < 0 = depleted, relative to wild type (whose scores are 0). 'The Enrich2 software calculates, parent: 0, not an affinity, scale: Enrich2 score, numbering: uniprot, sequence starts at 1

Variant	enrichment
S401F	2.4
S401L	2.46
S401P	-0.107
S401T	2.02
S401A	-0.239
S401Y	0.744
E409K	-0.366
E409G	0.152
E409V	0.507
E409A	-0.172
E409T	0.84
E409D	0.454
C392W	-0.824
C392F	-0.128
C392R	-1.14
C392S	-0.465
C392G	-0.321
C392Y	-1.08
Y399H	1.23
Y399D	1.99
Y399C	1.43
Y399S	2.82
Y399F	1.58

Variant	enrichment
Y399I	2.5
Y399N	2.41
L410R	1.71
S403C	0.314
S403G	-0.408
S403N	0.435
S403I	2.54
S403R	2.21
E391Q	-0.786
E391D	-0.531
E391G	-1.1
E391K	-0.425
E391A	-0.592
E391V	-0.645
D411E	1.55
G396R	2.19
G396V	0.898
G396S	-1.1
G396A	-1.05
G396D	0.65
A388D	-0.472
A388V	-0.153
A388T	-0.454

Variant	enrichment
A388S	0.429
A388P	-0.944
A388G	-1.33
L395R	-0.209
L395H	-0.769
L395P	-0.953
L395F	2.13
L395Q	2.71
I404A	1.16
I404F	2.25
I404N	1.51
I404S	1.61
I404Y	1.4
I404V	-0.182
I404T	-0.507
Q398K	2.11
Q398W	1.99
Q398L	1.96
Q398P	-0.641
Q398H	1.96
Q398E	1.41
Q398R	2.52
G407D	1.47

Variant	enrichment
G407N	2.77
G407C	1.11
G407A	-0.714
G407R	-0.0452
G407S	-0.771
G407V	1.39
I394L	2.29
I394F	2.63
I394N	2.39
I394Y	1.45
I394V	0.326
I394M	1.08
I394S	0.694
I394A	1.15
I394T	0.588
W397C	-0.144
W397S	-1.08
W397R	-1.01
W397L	-0.429
W397G	-0.823
P405H	1.08
P405A	0.742
P405T	0.224

Variant	enrichment
P405L	2
P405R	1.02
D393A	1.64
D393N	1.16
D393G	2.3
D393V	0.508
D393Y	-0.612
D393S	2.65
D393E	1.18
G402E	0.772
G402W	-0.485
G402K	2.35
G402V	-0.0472
G402R	1.69
L390W	2.28
L390V	0.548
L390S	-1.09
L390M	-0.808
L390F	1.66
D389N	-0.535
D389A	-0.573
D389G	-1.23
D389E	-0.54

Variant	enrichment
D389V	-0.759
D389Y	-0.572
I400T	-0.933
I400F	1.95
I400M	0.868
I400Y	1.86
I400N	-0.48
I400S	-0.343
I400V	-0.353
I400L	-0.846
D406V	2.12
D406E	-0.152
D406G	-0.172
D406A	-0.00151
D406H	-0.803
D406N	-0.7
D406Y	-0.496
H408R	2.75
H408P	1.5
H408Y	-0.432
H408L	1.61
D387V	-0.792
D387Y	-0.867

From publication PMC12212125, “Constitutively active Arabidopsis cryptochrome two alleles identified using yeast selection and deep mutational scanning” (The Journal of Biological Chemistry, 2025)
